Source: patent US20090208416A1
Blank lines part the entries; values can stand above or below the substance they belong to.

Legend:
[1] = molecular target: NKG2A on rhesus monkey (Macaca mulatta) NK cells (rhesus monkey (Macaca mulatta)) (UniProt Q9MZJ3); assay: FACS rhesus whole blood, animal O967
[2] = molecular target: NKG2A on rhesus monkey (Macaca mulatta) NK cells (rhesus monkey (Macaca mulatta)) (UniProt Q9MZJ3); assay: FACS rhesus whole blood, animal 31828
[3] = molecular target: NKG2A on rhesus monkey (Macaca mulatta) NK cells (rhesus monkey (Macaca mulatta)) (UniProt Q9MZJ3); assay: FACS rhesus whole blood, animal 34459
[4] = molecular target: NKG2A on rhesus monkey (Macaca mulatta) NK cells (rhesus monkey (Macaca mulatta)) (UniProt Q9MZJ3); assay: FACS rhesus whole blood, animal R00007
[5] = molecular target: NKG2A on rhesus monkey (Macaca mulatta) NK cells (rhesus monkey (Macaca mulatta)) (UniProt Q9MZJ3); assay: FACS rhesus whole blood, animal R00013
[6] = molecular target: NKG2A on rhesus monkey (Macaca mulatta) NK cells (rhesus monkey (Macaca mulatta)) (UniProt Q9MZJ3); assay: FACS rhesus whole blood, animal R00023
[7] = molecular target: NKG2A on rhesus monkey (Macaca mulatta) NK cells (rhesus monkey (Macaca mulatta)) (UniProt Q9MZJ3); assay: FACS rhesus whole blood, animal R00025
[8] = molecular target: NKG2A on rhesus monkey (Macaca mulatta) NK cells (rhesus monkey (Macaca mulatta)) (UniProt Q9MZJ3); assay: FACS rhesus whole blood, animal R00037
[9] = molecular target: NKG2A on rhesus monkey (Macaca mulatta) NK cells (rhesus monkey (Macaca mulatta)) (UniProt Q9MZJ3); assay: FACS rhesus whole blood, animal R00041
[10] = molecular target: NKG2A on rhesus monkey (Macaca mulatta) NK cells (rhesus monkey (Macaca mulatta)) (UniProt Q9MZJ3); assay: FACS rhesus whole blood, animal R00061
[11] = molecular target: NKG2A on rhesus monkey (Macaca mulatta) NK cells (rhesus monkey (Macaca mulatta)) (UniProt Q9MZJ3); assay: FACS rhesus whole blood, animal R00077
[12] = molecular target: NKG2A on rhesus monkey (Macaca mulatta) NK cells (rhesus monkey (Macaca mulatta)) (UniProt Q9MZJ3); assay: FACS rhesus whole blood, animal R00085
[13] = molecular target: NKG2A on rhesus monkey (Macaca mulatta) NK cells (rhesus monkey (Macaca mulatta)) (UniProt Q9MZJ3); assay: FACS rhesus whole blood, animal R00093
[14] = molecular target: NKG2A on rhesus monkey (Macaca mulatta) NK cells (rhesus monkey (Macaca mulatta)) (UniProt Q9MZJ3); assay: FACS rhesus whole blood, animal R00099
[15] = molecular target: NKG2A on rhesus monkey (Macaca mulatta) NK cells (rhesus monkey (Macaca mulatta)) (UniProt Q9MZJ3); assay: FACS rhesus whole blood, animal R00101
[16] = molecular target: NKG2A on rhesus monkey (Macaca mulatta) NK cells (rhesus monkey (Macaca mulatta)) (UniProt Q9MZJ3); assay: FACS rhesus whole blood, animal R99273
[17] = molecular target: NKG2A on cynomolgus monkey NK cells (cynomolgus monkey) (UniProt Q68VD2); assay: FACS cynomolgus whole blood, animal 1221
Sequence of UniProt Q68VD2 (Q68VD2 entry or part of it): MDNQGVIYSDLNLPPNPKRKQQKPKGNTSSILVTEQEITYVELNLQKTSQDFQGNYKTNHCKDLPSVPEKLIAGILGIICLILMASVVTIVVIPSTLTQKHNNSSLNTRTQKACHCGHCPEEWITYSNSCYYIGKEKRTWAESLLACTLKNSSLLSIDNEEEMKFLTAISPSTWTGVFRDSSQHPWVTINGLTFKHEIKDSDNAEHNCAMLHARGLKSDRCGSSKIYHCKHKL

[18] = molecular target: NKG2A on cynomolgus monkey NK cells (cynomolgus monkey) (UniProt Q68VD2); assay: FACS cynomolgus whole blood, animal M859
[19] = molecular target: NKG2A on cynomolgus monkey NK cells (cynomolgus monkey) (UniProt Q68VD2); assay: FACS cynomolgus whole blood, animal R390
[20] = molecular target: NKG2A on cynomolgus monkey NK cells (cynomolgus monkey) (UniProt Q68VD2); assay: FACS cynomolgus whole blood, animal T270
[21] = molecular target: NKG2A on cynomolgus monkey NK cells (cynomolgus monkey) (UniProt Q68VD2); assay: FACS cynomolgus whole blood, animal T788
[22] = molecular target: NKG2A on cynomolgus monkey NK cells (cynomolgus monkey) (UniProt Q68VD2); assay: FACS cynomolgus whole blood, animal AK565
[23] = molecular target: NKG2A on cynomolgus monkey NK cells (cynomolgus monkey) (UniProt Q68VD2); assay: FACS cynomolgus whole blood, animal AK729
[24] = molecular target: NKG2A on cynomolgus monkey NK cells (cynomolgus monkey) (UniProt Q68VD2); assay: FACS cynomolgus whole blood, animal AL210
[25] = molecular target: NKG2A on cynomolgus monkey NK cells (cynomolgus monkey) (UniProt Q68VD2); assay: FACS cynomolgus whole blood, animal AL303
[26] = molecular target: NKG2A on cynomolgus monkey NK cells (cynomolgus monkey) (UniProt Q68VD2); assay: FACS cynomolgus whole blood, animal AL389
[27] = molecular target: NKG2A on rhesus monkey (Macaca mulatta) NK cells (rhesus monkey (Macaca mulatta)) (UniProt Q9MZJ3); assay: FACS rhesus whole blood, mean over animals
[28] = molecular target: NKG2A on rhesus monkey (Macaca mulatta) NK cells (rhesus monkey (Macaca mulatta)) (UniProt Q9MZJ3); assay: FACS rhesus whole blood, animal R00073 (5.6 kg)
[29] = molecular target: NKG2A on rhesus monkey (Macaca mulatta) NK cells (rhesus monkey (Macaca mulatta)) (UniProt Q9MZJ3); assay: FACS rhesus whole blood, animal R00073 (6.1 kg)
[30] = molecular target: NKG2A on cynomolgus monkey NK cells (cynomolgus monkey) (UniProt Q68VD2); assay: FACS cynomolgus whole blood, mean of 10 animals
[31] = molecular target: NKG2A on rhesus monkey (Macaca mulatta) NK cells (rhesus monkey (Macaca mulatta)) (UniProt Q9MZJ3); assay: FACS rhesus whole blood, animal R00055

Sequence of UniProt Q9MZJ3 (Q9MZJ3 whole entry): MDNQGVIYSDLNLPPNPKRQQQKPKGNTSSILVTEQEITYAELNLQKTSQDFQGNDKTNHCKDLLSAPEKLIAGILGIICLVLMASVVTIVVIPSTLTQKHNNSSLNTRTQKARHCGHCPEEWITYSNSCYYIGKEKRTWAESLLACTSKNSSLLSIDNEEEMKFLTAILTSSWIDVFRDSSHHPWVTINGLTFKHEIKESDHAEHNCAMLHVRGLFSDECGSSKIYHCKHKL

% NK+ [1]: 84.8%
MFI [1]: 62.3
MFI NK+ [1]: 73.4
% NK+ [2]: 99.8%
MFI [2]: 101
MFI NK+ [2]: 101
% NK+ [3]: 96.2%
MFI [3]: 63.8
MFI NK+ [3]: 66.3
% NK+ [4]: 99.6%
MFI [4]: 34.9
MFI NK+ [4]: 35
% NK+ [5]: 97.8%
MFI [5]: 38.8
MFI NK+ [5]: 39.7
% NK+ [6]: 96.4%
MFI [6]: 34
MFI NK+ [6]: 35.3
% NK+ [7]: 97.3%
MFI [7]: 30
MFI NK+ [7]: 30.9
% NK+ [8]: 96.9%
MFI [8]: 26.7
MFI NK+ [8]: 27.5
% NK+ [9]: 89.6%
MFI [9]: 33.1
MFI NK+ [9]: 36.9
% NK+ [10]: 40.7%
MFI [10]: 1.6
MFI NK+ [10]: 2.4
% NK+ [11]: 97.1%
MFI [11]: 30.4
MFI NK+ [11]: 31.3
% NK+ [12]: 91.9%
MFI [12]: 68.4
MFI NK+ [12]: 74.4
% NK+ [13]: 97.9%
MFI [13]: 81.9
MFI NK+ [13]: 83.6
% NK+ [14]: 97.6%
MFI [14]: 31.1
MFI NK+ [14]: 31.8
% NK+ [15]: 98.7%
MFI [15]: 37.1
MFI NK+ [15]: 37.6
% NK+ [16]: 98%
MFI [16]: 32.7
MFI NK+ [16]: 33.4
% NK+ [17]: 96.7%
MFI [17]: 105
MFI NK+ [17]: 109
% NK+ [18]: 95.1%
MFI [18]: 144
MFI NK+ [18]: 152
% NK+ [19]: 99%
MFI [19]: 32.3
MFI NK+ [19]: 32.6
% NK+ [20]: 97.7%
MFI [20]: 113
MFI NK+ [20]: 116
% NK+ [21]: 97%
MFI [21]: 123
MFI NK+ [21]: 126
% NK+ [22]: 90.7%
MFI [22]: 28.2
MFI NK+ [22]: 31
% NK+ [23]: 99.4%
MFI [23]: 37.4
MFI NK+ [23]: 37.7
% NK+ [24]: 92.7%
MFI [24]: 126
MFI NK+ [24]: 136
% NK+ [25]: 99.1%
MFI [25]: 129
MFI NK+ [25]: 130
% NK+ [26]: 95.5%
MFI [26]: 223
MFI NK+ [26]: 234
% NK+ (Mean) [27]: 93.2%
MFI (Mean) [27]: 29.6
MFI NK+ (Mean) [27]: 30.6
% NK+ [28]: 99.1%
MFI [28]: 31.6
MFI NK+ [28]: 31.9
% NK+ [29]: 98%
MFI [29]: 31.9
MFI NK+ [29]: 32.6
% NK+ (Mean) [30]: 96.3%
MFI (Mean) [30]: 106
MFI NK+ (Mean) [30]: 110
Substance: Z199 anti-NKG2A monoclonal antibody

% NK+ [1]: 0.5%
MFI [1]: 0.7
% NK+ [2]: 0.5%
MFI [2]: 0.7
% NK+ [3]: 1.2%
MFI [3]: 0.7
% NK+ [4]: 0.7%
MFI [4]: 0.4
% NK+ [5]: 0.2%
MFI [5]: 0.6
% NK+ [6]: 0.6%
MFI [6]: 0.3
% NK+ [7]: 0.4%
MFI [7]: 0.4
% NK+ [8]: 0.3%
MFI [8]: 0.5
% NK+ [9]: 0.3%
MFI [9]: 0.4
% NK+ [31]: 0.9%
MFI [31]: 0.6
% NK+ [10]: 0.2%
MFI [10]: 0.6
% NK+ [11]: 0.5%
MFI [11]: 0.4
% NK+ [12]: 0.3%
MFI [12]: 0.7
% NK+ [13]: 0.4%
MFI [13]: 0.6
% NK+ [14]: 0.3%
MFI [14]: 0.5
% NK+ [15]: 0.4%
MFI [15]: 0.5
% NK+ [16]: 0.6%
MFI [16]: 0.4
% NK+ [17]: 1.3%
MFI [17]: 0.8
% NK+ [18]: 0.2%
MFI [18]: 0.6
% NK+ [19]: 0.2%
MFI [19]: 0.5
% NK+ [20]: 0.2%
MFI [20]: 0.6
% NK+ [21]: 0.4%
MFI [21]: 0.6
% NK+ [22]: 0.3%
MFI [22]: 0.6
% NK+ [23]: 0.3%
MFI [23]: 0.6
% NK+ [24]: 0.3%
MFI [24]: 0.7
% NK+ [25]: 0.14%
MFI [25]: 0.7
% NK+ [26]: 0.4%
MFI [26]: 0.8
% NK+ (Mean) [27]: 0.5%
MFI (Mean) [27]: 0.5
% NK+ [28]: 0.39%
MFI [28]: 0.4
% NK+ [29]: 0.3%
MFI [29]: 0.3
% NK+ (Mean) [30]: 0.4%
MFI (Mean) [30]: 0.7
Substance: mouse IgG2b isotype control (antibody)
